Key:
[1] = molecular target: T1, WCH-1 water channel (Rattus norvegicus, UniProt P34080); assay: Effect of mercurial sulfhydryl reagent and reducing agent on Pf of WCH-1-injected oocytes; assay type: cell-based
T1 construct: The longest open reading frame encodes a 271-amino acid protein (Mr 28928); expressed in transfected cells; host or cells: Xenopus laevis oocytes injected with cRNA transcribed from WCH-1 in pSPORT
T1 sequence (P34080 1-271): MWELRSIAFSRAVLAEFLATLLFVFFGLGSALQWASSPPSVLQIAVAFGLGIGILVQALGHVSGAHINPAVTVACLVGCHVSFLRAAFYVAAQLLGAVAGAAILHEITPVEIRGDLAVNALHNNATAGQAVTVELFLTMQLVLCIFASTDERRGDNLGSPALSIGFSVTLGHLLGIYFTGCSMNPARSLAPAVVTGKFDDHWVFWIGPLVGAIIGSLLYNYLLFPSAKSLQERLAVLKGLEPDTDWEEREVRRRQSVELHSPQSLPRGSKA
Protocol: (§1) Capped cRNA was synthesized from WCH-1 in pSPORT vector using T7 RNA polymerase after linearization of the pSPORT vector. Oocytes were obtained from female Xenopus laevis and prepared as described in Dascal, N. CRC Crit. Rev. Biochem. 22, 317-373 (1987), then injected with […] or 20 ng of WCH-1 RNA (1 μg/μL) and incubated at 18° C. […] Oocytes were viewed by light transmitted through an Olympus phase-contrast microscope and imaged on a Hamamatsu SIT camera connected to ARGUS-200 image processing system. Images were obtained and stored at 20-s intervals.
(§2) Osmotic water permeability (Pf) was determined from an initial slope of a time curve of V/Vo (d (V/Vo)/dt), initial oocyte volume (Vo =9×10^-4 cm^3), initial oocyte surface area (S=0.045 cm^2), the molar volume of water (Vw =18 cm^3 /mol) by:
(§3) Pf=[Vo×d (V/Vo)/dt]/[S×Vw ×(osmin
To examine the effects of mercurial sulfhydryl reagents, oocytes were incubated in Barth's buffer containing 0.3 mM HgCl2 for 5 minutes prior to Pf measurements. The recovery of the inhibition by reducing agents was examined by 15 minutes incubation in a Barth's buffer containing 5 mM β-mercaptoethanol following 5-minute incubation in HgCl2.

[2] = test system: Xenopus oocytes; assay: Osmotic water permeability of Xenopus oocytes injected with WCH-1 RNA (videomicroscopy of osmotic volume increase); assay type: cell-based, Xenopus laevis
Protocol: To determine the osmic water permeability of oocytes injected with the WCH-1 transcript, volume increase caused by an imposed osmotic gradient was measured using videomicroscopy (Zhang, R. & Verkman, A. S. Am. J. Physiol. 260, C26-C34 (1991)).
as §1
Oocytes images were processed as described in Zhang, R. & Verkman, A. S. Am. J. Physiol. 260, C26-C34 (1991) and the projection area of the oocytes was calculated by automatic summation. Relative volume (V/Vo) was calculated from the area at time 0 (Ao) and at time t (A) by:
as §2, §3

OCCS [B-mercaptoethanol, β-mercaptoethanol]
Pf in WCH-1-injected oocytes after recovery with reducing agent ([1]; 5 mM mercaptoethanol for 15 minutes following incubation in 0.3 mM HgCl2): 63.1±25.8 ×10^-4 cm/sec

[Cl][Hg][Cl] [HgCl2]
Pf in WCH-1-injected oocytes after incubation in HgCl2 ([1]; 0.3 mM HgCl2, five minutes, Pf without HgCl2 83.9±18.2): 44.5±3.6 ×10^-4 cm/sec

B1: WCH-1: vasopressin-regulated water channel localized in the kidney collecting tubule; expressed in oocytes by injection of its capped cRNA (protein, UniProt P34080 1-271, looked up)
Aquaporin-2: MWELRSIAFSRAVLAEFLATLLFVFFGLGSALQWASSPPSVLQIAVAFGLGIGILVQALGHVSGAHINPAVTVACLVGCHVSFLRAAFYVAAQLLGAVAGAAILHEITPVEIRGDLAVNALHNNATAGQAVTVELFLTMQLVLCIFASTDERRGDNLGSPALSIGFSVTLGHLLGIYFTGCSMNPARSLAPAVVTGKFDDHWVFWIGPLVGAIIGSLLYNYLLFPSAKSLQERLAVLKGLEPDTDWEEREVRRRQSVELHSPQSLPRGSKA
Pf in WCH-1-injected oocytes relative to Pf in water-injected oocytes ([2]; WCH-1-injected vs water-injected oocytes): 3.5 times
Osmotic water permeability (Pf) ([2]; oocytes injected with 20 ng WCH-1 RNA, 24 h incubation, transfer from 200 mOsm to 70 mOsm Barth's buffer, 24° C., mean±SEM): 83.9±18.2 ×10^-4 cm/s
Oocytes ruptured after transfer into the hypotonic solution ([2]; within 10 minutes, none of water-injected oocytes ruptured for more than 60 minutes): ten out of eleven
